Reference: patent US20050053993A1, “Uses of an endothelial cell receptor” (priority 2002, published 2005)

How the values were obtained:
MDA 445 = assay: Tumor cell proliferation, MDA 445; type: cell-based; details: MDA 445, 72 hours
Procedure: Cell Proliferation Assay. The effect of rK5 and rK5 peptides on endothelial cells were assessed using a proliferation assay with 1% BSA and 3 ng/ml bFGF in serum-free media. Relative cell numbers in each well of a 96 well microplate after incubation for 72 hours in the absence or presence of inhibitors were determined by using the AQueous cell proliferation assay (Promega, San Luis Obispo, Calif.). For all other cell lines tested for proliferation, minimal growth media was used (Cao, Y., Ji, R., Davidson, D., Schaller, J., Marti, D., Sohndel, S., McCance, S., O'Reilly, M., Llinas, M., and Folkman, J. Kringle domains of human angiostatin. Characterization of the anti-proliferative activity on endothelial cells. (1996) J. Biol. Chem. 271, 29461-29467). Results are presented as the percent inhibition of control cell (bFGF-induced) proliferation.

HMVEC cells = assay: Apoptosis of stimulated endothelial cells (histone ELISA); type: cell-based, human
Procedure: FIG. 9B is a graph showing the induction by rK5 of apoptosis in stimulated endothelial cells. The rate of apoptosis was measured in HMVEC cells using a histone detection kit (Markwell, M. A. K. Anal Biochem 1982, 125, 427-432.) HMVECs were grown in 96 well plates. Recombinant K5 at various concentrations was added to plates and incubated overnight. Apoptosis was determined from triplicate samples and the Apoptotic index was determined by dividing the absorbance from the treated cells by the absorbance from the untreated cells.
Assessment of Cellular Apoptosis: The effects of rK5 and rK5 peptide-induced apoptosis were determined with a histone ELISA apoptosis assay (Roche, Indianapolis, Ind.)(Mayr M, Li C, Zou Y, Huemer U, Hu Y, Xu Q. Biomechanical stress-induced apoptosis in vein grafts involves p38 mitogen-activated protein kinases. FASEB J. 2000 Feb.; 14(2):261-70) Cells (5000 per well) were grown in 96 well plates. rK5 and/or an antibody to GRP78 were added to plates and incubated overnight. Apoptosis was determined from triplicate samples and the Apoptotic Index was determined by dividing the absorbance from the treated cells by the absorbance from the untreated cells.

B1: rK5: recombinant kringle 5 fragment of human plasminogen (residues 450-543), expressed in E. coli or yeast (protein)
chain: LLPDVETPSEEDCMFGNGKGYRGKRATTVTGTPCQDWAAQEPHRHSIFTPETNPRAGLEKNYCRNPDGDVGGPWCYTTNPRKLYDYCDVPQCAA
- IC50 values for cell proliferation (MDA 445): >100 µg/mL
- induction of endothelial cell apoptosis (HMVEC cells): 1 nM
- apoptosis of stimulated endothelial cells (HMVEC cells; overnight, FIG. 9B): induced
